Target: human claudin 18.2 (CLDN18.2) (human)
Experiment: cell-based or functional assay

Row | EC50, ADCC Reporter Bioassay (luciferase, Jurkat FcγRIIIa V158/NFAT effector cells) [nM] | Binder
1 | 0.0463 | 72C1B6A3 chimeric antibody (antibody, V domains shown) VH: QVQLQQSGGELVKPGASVKMSCKAFGYTFTTYPIEWMKQNHGKSLEWIGNFHPYNDDTKYNEKFKGKAKLTVEKSSSTVYLEVSRLTSDDSAVYYCARRAYGYPYAMDYWGQGTSVTVSS VL: DIVMTQSPSSLTVTAGEKVTMSCKSSQSLLNSGNQKNYLTWYQQRPGQPPKLLIYRASSRESGVPVRFTGSGSGTDFTLTISSVQAEDLAVYYCQNDYIYPYTFGGGTKLEMN
2 | 0.0222 | 4F11E2 chimeric antibody (antibody, V domains shown) VH: DVQLVESGGGLVQPGGSRKLSCAASGFTFSTFGMHWVRQAPEKGLEWVAYITSGNSPIYFTDTVKGRFTISRDNPKNTLFLQMTSLGSEDTAVYYCARSSYYGNSMDYWGQGTSVTVSS VL: DIVMTQSPSSLTVTAGEKVTLTCRSSQSLLNSGNRKNYLTWYQQIPGQPPKLLIYWASTRESGVPDRFTGSGSGTYFTLTISSVQAEDLAVYYCQNAYSYPFTFGSGTKLEKK

Target: human claudin 18.2 (CLDN18.2) (human)
Experiment: cell-based or functional assay
Remark: another data set of the same source

Row | Fluorescence, pHAb internalization on MKN45-CLDN18.2 cells, 20 nM antibody, normalized by DAR | Fluorescence, pHAb internalization on MKN45-CLDN18.2 cells, 100 nM antibody, normalized by DAR | Binder
3 | 18700 | 35100 | 84E9E12 chimeric antibody (antibody, V domains shown) VH: DVQLQESGPGLVKPSQSLSLSCSVTGYSITSGYFWTWFRQFPGNKLEWMGYISYDGSNNYNPSLKNRISITRDTSKNQFFLKLNSVTTEDTATYYCASFRFFAYWGQGTLVTVSA VL: DIVMTQSPSSLTVTTGEKVTMSCKSSQSVFNSGNQKNYLTWYQQKPGQPPKLLVYWASTRESGVPARFTGSGSGTVFTLTISSVQAEDLAVYYCQNDYYFPLTFGAGTRLELK
4 | 13200 | 29900 | 113E12F7 chimeric antibody (antibody, V domains shown) VH: QVQLKESGPGLVAPSQSLSITCTVTGFSLSSYGVHWVRQPPGKGLEWLGVIWAGGSTNYDSALMSRLSISKDRSKSQVFLKMTSLQTDDTAMYYCARSLYGNSFDHWGQGTTLTVSS VL: DIVMTQSPSSLTVTTGEKVTMSCKSSQSLFNSGNQKNYLTWYQQKPGQPPKLLIYWASTRESGVPDRFTGSGSGTYFTLTISSVQAEDLAVYYCQNNYIYPLAFGTGTKLELK
5 | 11000 | 28900 | 113G12E5E6 chimeric antibody (antibody, V domains shown) VH: QVQLKQSGPGLVQPSQSLSITCTVSDFSLTKYGVHWFRQSPGKGLEWLGVIWTGGNTDYNPALIPRLSFRKDNSKSQVFFKMNSLQSSDTAVYYCARNGYYGNAMDYWGQGTSVTVSS VL: DIVMTQSPSSLTVTAGERVTMSCKPSQSLLNSGNQKNYLAWYQQKPGQPPKLLLYWASTRESGVPDRFKGSGSGTDFTLTISSVQAEDLAVYYCQNAYFYPCTFGGGTKLEMK
6 | 14800 | 43100 | 105F7G12 chimeric antibody (antibody, V domains shown) VH: QVQLKQSGPGLVQPSQSLSITCTVSDFSLTKYGVHWFRQSPGKGLEWLGVIWTGGNTDYNPALIPRLSFRKDNSKSQVFFKMNSLQSSDTAVYYCARNGYYGNAMDYWGQGTSVTVSS VL: DIVMTQSPSSLTVTAGERVTMSCKSSQSLLNSGNQKNYLAWYQQKPGQPPKLLLYWASTRESGVPDRFKGSGSGTDFTLTISSVQAEDLAVYYCQNAYFYPCTFGGGTKLEMK
7 | 16200 | 29100 | 78C10B6G4 chimeric antibody (antibody, V domains shown) VH: QVQLKESGPGLVAPSQSLSITCTVSGFSLINYGVSWVRQPPGKGLEWLGVIRGDGNTNYQSALRSRLSIRKDTSKSQVFLKLNSVHTDGTATYYCAKVGRGNAMDHWGQGISVIVSS VL: DIVMTQSPSSLTVTAGEKVTMSCKSSQSLLNSGNQKNYLTWYQQRPGQPPKLLIYRASSRESGVPVRFTGSGSGTDFTLTISSVQAEDLAVYYCQNDYIYPYTFGGGTKLEMN
8 | 12000 | 31300 | 103A10B2 chimeric antibody (antibody, V domains shown) VH: QVQLKESGPGLVAPSQSLSITCTVSGLSLTSFGVHWIRQPPGKGLEWLGVIWAGGSTNYNSALMSRLSISKDNSKSQVYLKMHSLQTDDTAMYYCARSLYGNSFDYWGQGTALTVSS VL: DIVMTQSPSSLTVTPGEKVTMSCRSSMSLFNSGNQKSYLSWYHQKPGQPPKLLIYWASTRDSGVPVRFTGSGSGTDFTLTISSVQAEDLAVYYCHNDYIYPLTFGAGTKLELK
9 | 12300 | 28000 | 111E7E2 chimeric antibody (antibody, V domains shown) VH: QVQLKESGPGLVAPSQSLSITCTVSGFSLTSYGAHWVRQPPGKGLEWLGVIWAGGSTNYDSALMSRLSISKDRSKSQVFLKMTSLQTDDTAMYYCARSLYGNSFDHWGQGTTLTVSS VL: DIVMTQSPSSLTVTAGEKVTMSCKSSQSLFNSGNQKNYLTWYQQKPGQPPKLLIYWASTRESGVPDRFTGSGSGTDFTLTISSVQAEDLAVYYCQNNYIYPLAFGAGTKLELK
10 | 15900 | 37400 | 111B12D11 chimeric antibody (antibody, V domains shown) VH: QVQLKESGPGLVAPSQSLSITCTVSGFSLTSYGVHWVRQPPGKGLEWLGVIWAGGSTNYDSTLMSRLSISKDRSKSQVFLKMTSLQTDDTAMYYCARSLYGNSFDHWGQGTTLTVSS VL: DIVMTQSPSSLTVTAGEKVTMRCRSSQSLFNSGNQRNYLTWYQQKPGQPPKLLIYWASTRESGVPDRFTGSGSGTDFTLTISSVQAEDLAVYYCQNNYIYPLAFGAGTKLELK
11 | 21400 | 34000 | 119G11D9 chimeric antibody (antibody, V domains shown) VH: EVQLQQSGPELVKPGASVKMSCKASGYTFTGFLMHWVKQKPGQGLEWIGYINPYNDGTKYSEKFKGKATLTSDKSSSTAFMELSSLTSDDSAVYYCARLDYGNAMDYWGQGTSVTVSS VL: DIVMTQSPSSLTVTAGERVTMRCRSTQSLFNSGNQKNYLTWYQQKPGQPPKLLIYWASTRESGVPDRFTGGGSGTDFTLTISSVQAEDLAVYYCQNAYYYPLTFGAGTKLERK
12 | 17100 | 33500 | 100F4G12 chimeric antibody (antibody, V domains shown) VH: EVQLQQSGPELVKPGASVKMSCKASGYTFTGFLMHWVKQKPGQGLEWIGYINPYNDGTKYSERFKGKATLTSDKSSSTAYMELSSLTSDDSAVYYCARLDYGNAMDYWGQGTSVTVSS VL: DIVMTQSPSSLTVTAGEKVTMRCKSTQSLLNSGNQRNYLTWYQQKPGQSPKLLIYWASTRESGVPERFTGSGSGTDFTLTISSVQAEDLAVYYCQNAYYYPLTFGPGTKLERK
13 | 21400 | 41700 | 116A8B7 chimeric antibody (antibody, V domains shown) VH: EVQLQQSGPELVKPGASVKMSCKSSGYTFTGFLMHWVKQKPGQGLEWIGYINPYNDGTKYSEKFKGKATLTSDKSSSTAYMELSSLTSDDSAVYYCGRLDYGNAMDYWGQGTSVTVSS VL: DIVMTQSPSSLTVTAGEKVTMRCRSTQSLFNSGNQRNYLTWYQQKPGQPPKLLIYWASTRESGVPDRFTGSGSGTDFTLTISSVQAEDLAVYYCQNAYYYPLTFGVGTKLERK
14 | 19300 | 40100 | 110C12B6 chimeric antibody (antibody, V domains shown) VH: EVQLQQSGPELVKPGASVKMSCKSSGYTFTGFLMHWVKQKPGQGLEWIGYINPYNDGTKYSEKFKGKATLTSDKSSSTAYMELSSLTSDDSAVYYCGRLDYGNAMDYWGQGTSVTVSS VL: DIVMTQSPSSLTVTAGEKVTMRCRSTQSLFNSGNQRNYLTWYQQKPGQPPKLLIYWASTRESGVPDRFTGSGSGTDFTLTISSVQAEDLAVYYCQNAYYYPLTFGVGTKLERK
15 | 23500 | 35800 | 103H2B4 chimeric antibody (antibody, V domains shown) VH: QVQLQQPGAEPVKPGASVKLSCKASGYSFTNFLTHWVRQRPGQGLEWIGEINPTNGRTYYNEKFKRKATLTVDKSSTTVYMQLSNLTPEDSAVFYCARIYYGNSMDYWGQGTLVTVSA VL: DILMTQSPSSLTVTAGEKVTMSCKSSQSLLNSGNQKNYLTWYQQKPGQSPKLLIYWASTRESGVPDRFTGSGSGTDFTLTISSVQAEDLAVYYCQNNYFYPLTFGVGTKLELK
16 | 19700 | 29100 | 85H12E8 chimeric antibody (antibody, V domains shown) VH: QVQLKESGPGLVAPSQSLSITCTVSGFSLSNYGVSWVRQPPGKGLEWLGVIWAGGNTNYNSALMSRLRISKDNSKSQVFLKMNSLQTDDTARYYCARHGYGKGNAMDNWGQGTSVTVSS VL: DIVMTQSPSSLTVTAGEKVTMNCKSSQSLLNSGNQRNYLSWYQQEPGQPPKLLIYWASTRESGVPDRFTGSGSGTDFTLTISNIQAEDLALYFCQNAYFYPFTFGSGTKLEIK
17 | 9600 | 35500 | 10G7G11 chimeric antibody (antibody, V domains shown) VH: QVQLKESGPGLVAPSQSLSITCTISGFSLNTYGVHWVRQPPGKGLEWLVVMLSDGNTVYNSSLKSRLSLTKDNSKSQLLLKMNSLQTDDTAIYYCARHKAYGNAMDYWGQGTSVTVSS VL: DIVMTQSPSSLTVTAGEKVTMTCKSSQSLFNSGNQRNYLTWYQRKPGQPPKLLIYWASTRESGVPDRFTGSGSGTYFTLTVSSVQAEDLAVYYCQNAYYFPFTFGSGTKLEKK
18 | 31200 | 49100 | 103F4D4 chimeric antibody (antibody, V domains shown) VH: QVQLQQSGAELARPGASVKMSCKASGYTFPTYSIHWLKQGPGQGLEWIGYINPSTIYTNYNQKFKYKATLTADKSSSTAYIQLSSLTSDDSAVYYCAREGYGRGNAMDYWGQGTSVTVSS VL: DIVMTQSPSSQTVTAGEKVTLSCRSSQSLLNGGNQKNYLTWYQQKPGQPPKLLIYWASTRESGVPDRFTGSGSGTYFTFTISSVQAEDLAVYYCQNAYFYPFTFGAGTKLELK
